Reference: paper doi:10.1101/552281 (bioRxiv, 2019)
Changes are numbered by the printed parent chain. Names and notes keep the numbering of the source. Where two headings read alike, the source gives them in different places.

B1: full-length human phenylalanine hydroxylase (enzyme, UniProt P00439 1-452, looked up)
chain: MSTAVLENPGLGRKLSDFGQETSYIEDNCNQNGAISLIFSLKEEVGALAKVLRLFEENDVNLTHIESRPSRLKKDEYEFFTHLDKRSLPALTNIIKILRHDIGATVHELSRDKKKDTVPWFPRTIQELDRFANQILSYGAELDADHPGFKDPVYRARRKQFADIAYNYRHGQPIPRVEYMEEEKKTWGTVFKTLKSLYKTHACYEYNHIFPLLEKYCGFHEDNIPQLEDVSQFLQTCTGFRLRPVAGLLSSRDFLGGLAFRVFHCTQYIRHGSKPMYTPEPDICHELLGHVPLFSDRSFAQFSQEIGLASLGAPDEYIEKLATIYWFTVEFGLCKQGDSIKAYGAGLLSSFGELQYCLSEKPKLLPLELEKTAIQNYTVTEFQPLYYVAESFNDAKEKVRNFAATIPRPFSVRYDPYTQRIEVLDNTQQLKILADSINSEIGILCSALQKIK
B2: hPAH mutant Y138F (enzyme, human, UniProt P00439 1-452, looked up)
chain: B1 chain with Y138F
B3: hPAH mutant S23A (enzyme, human, UniProt P00439 1-452, looked up)
chain: B1 chain with S23A
B4: hPAH mutant Y377F (enzyme, human, UniProt P00439 1-452, looked up)
chain: B1 chain with Y377F
B5: ΔN13-hPAH (human phenylalanine hydroxylase lacking the N-terminal 13 residues) (enzyme, UniProt P00439 14-452, looked up)
chain: KLSDFGQETSYIEDNCNQNGAISLIFSLKEEVGALAKVLRLFEENDVNLTHIESRPSRLKKDEYEFFTHLDKRSLPALTNIIKILRHDIGATVHELSRDKKKDTVPWFPRTIQELDRFANQILSYGAELDADHPGFKDPVYRARRKQFADIAYNYRHGQPIPRVEYMEEEKKTWGTVFKTLKSLYKTHACYEYNHIFPLLEKYCGFHEDNIPQLEDVSQFLQTCTGFRLRPVAGLLSSRDFLGGLAFRVFHCTQYIRHGSKPMYTPEPDICHELLGHVPLFSDRSFAQFSQEIGLASLGAPDEYIEKLATIYWFTVEFGLCKQGDSIKAYGAGLLSSFGELQYCLSEKPKLLPLELEKTAIQNYTVTEFQPLYYVAESFNDAKEKVRNFAATIPRPFSVRYDPYTQRIEVLDNTQQLKILADSINSEIGILCSALQKIK

Key:
[1] = target: catalytic domain of human phenylalanine hydroxylase (hPAH-CD) (human); experiment: crystal structure
cryo-EM structure = target: the molecule itself; experiment: cryo-EM structure
[2] = target: the molecule itself
crystal structure = target: the molecule itself; experiment: crystal structure

Row | Molecule | stoichiometry N [2] | further results
1 | catalytic domain of human phenylalanine hydroxylase (hPAH-CD) (domain or fragment) |  | stoichiometry N [1]: 2
2 | B1 |  | stoichiometry N (cryo-EM structure): 4
3 | B2 | 4 | 
4 | B3 | 4 | 
5 | B4 | 4 | 
6 | B5 |  | stoichiometry N (crystal structure): 4
